Assays:
[1] = target: D3H44 light chain Q124E_Q160E_T178D; test: LCCA (SPR), competitor L2 Q160K_T178R
[2] = target: D3H44 light chain Q160K_T178R (Table 8); test: LCCA (SPR), competitor L1 Q124E_Q160E_T178D
[3] = target: D3H44 light chain Q160K_T178R (Table 8); test: LCCA: H1 co-expressed with L1 and L2, SPR read-out of light chain tags; competing chain L1
[4] = target: D3H44 light chain Q124E_Q160E_T178D; test: LCCA: H1 co-expressed with L1 and L2, SPR read-out of light chain tags; competing chain L2
[5] = target: D3H44 light chain Q124R_Q160K_T178R; test: LCCA: H1 co-expressed with L1 and L2, SPR read-out of light chain tags; competing chain L1
D3H44 light chain S176L [6] = test: LCCA (SPR), competitor L2 WT
[7] = target: D3H44 light chain, wild type; test: LCCA (SPR), competitor L1 S176L
D3H44 light chain S176L [8] = test: LCCA (SPR), competitor L1 V133S
D3H44 light chain V133S [9] = test: LCCA (SPR), competitor L2 S176L
D3H44 light chain S176L [10] = test: LCCA: H2 co-expressed with L1 and L2, SPR read-out of light chain tags; competing chain L1
D3H44 light chain V133S [11] = test: LCCA: H2 co-expressed with L1 and L2, SPR read-out of light chain tags; competing chain L2
[12] = target: D3H44 light chain Q124R_Q160K_T178R; test: LCCA: H2 co-expressed with L1 and L2, SPR read-out of light chain tags; competing chain L1
[13] = target: D3H44 light chain Q124E_Q160E_T178D; test: LCCA: H2 co-expressed with L1 and L2, SPR read-out of light chain tags; competing chain L2
[14] = target: D3H44 light chain Q124E_V133W_Q160E_T180E; test: LCCA (SPR), competitor L2 V133A_Q160K_T178R
[15] = target: D3H44 light chain V133A_Q160K_T178R; test: LCCA (SPR), competitor L1 Q124E_V133W_Q160E_T180E
[16] = target: D3H44 light chain V133A_Q160K_T178R; test: LCCA: H2 co-expressed with L1 and L2, SPR read-out of light chain tags; competing chain L1
[17] = target: D3H44 light chain Q124E_V133W_Q160E_T180E; test: LCCA: H2 co-expressed with L1 and L2, SPR read-out of light chain tags; competing chain L2
[18] = target: D3H44 light chain Q160K_T178R (Table 8); test: LCCA: H2 co-expressed with L1 and L2, SPR read-out of light chain tags; competing chain L1
[19] = target: D3H44 light chain V133A_Q160K_T178R; test: LCCA: H1 co-expressed with L1 and L2, SPR read-out of light chain tags; competing chain L1
[20] = target: D3H44 light chain Q124E_V133W_Q160E_T180E; test: LCCA: H1 co-expressed with L1 and L2, SPR read-out of light chain tags; competing chain L2
D3H44 light chain Q38E [21] = test: LCCA (SPR), competitor L1 Q38M
D3H44 light chain Q38M [22] = test: LCCA (SPR), competitor L2 Q38E
D3H44 light chain Q38E [23] = test: LCCA (SPR), competitor L1 Q38M; first of two ratios in the cell
D3H44 light chain Q38M [24] = test: LCCA (SPR), competitor L2 Q38E; first of two ratios in the cell
D3H44 light chain Q38E [25] = test: LCCA (SPR), competitor L1 Q38M; second of two ratios in the cell
D3H44 light chain Q38M [26] = test: LCCA (SPR), competitor L2 Q38E; second of two ratios in the cell
D3H44 light chain Q38R [27] = test: LCCA (SPR), competitor L1 Q38D
D3H44 light chain F98A [28] = test: LCCA (SPR), competitor L1 Q38E
D3H44 light chain Q38R [29] = test: LCCA (SPR), competitor L1 Q38E
D3H44 light chain Q38R [30] = test: LCCA (SPR), competitor L2 Q38D
D3H44 light chain Q38R [31] = test: LCCA: H2 co-expressed with L1 and L2, SPR read-out of light chain tags; competing chain L2
[32] = target: D3H44 light chain S176V_T178L; test: LCCA (SPR), competitor L1 WT
[33] = target: D3H44 light chain, wild type; test: LCCA (SPR), competitor L2 S176V_T178L
D3H44 light chain S176L [34] = test: LCCA: H1 co-expressed with L1 and L2, SPR read-out of light chain tags; competing chain L1
D3H44 light chain V133S [35] = test: LCCA: H1 co-expressed with L1 and L2, SPR read-out of light chain tags; competing chain L2
[36] = target: D3H44 light chain L89R_F98W; test: LCCA (SPR), competitor L2 WT
[37] = target: D3H44 light chain L89R_F98W; test: LCCA (SPR), competitor L2 F98Y
D3H44 light chain F98Y = test: LCCA (SPR), competitor L1 L89R_F98W
[38] = target: D3H44 light chain, wild type; test: LCCA (SPR), competitor L1 L89R_F98W
[39] = target: D3H44 light chain, wild type; test: LCCA: H1 co-expressed with L1 and L2, SPR read-out of light chain tags; competing chain L1
[40] = target: D3H44 light chain L89R_F98W; test: LCCA: H1 co-expressed with L1 and L2, SPR read-out of light chain tags; competing chain L2
D3H44 light chain F116A = test: LCCA (SPR), competitor L1 WT
D3H44 light chain F98A [41] = test: LCCA (SPR), competitor L1 WT
D3H44 light chain F98L [42] = test: LCCA (SPR), competitor L1 WT
D3H44 light chain F98W [43] = test: LCCA (SPR), competitor L1 F98L
D3H44 light chain F98A [44] = test: LCCA (SPR), competitor L1 F98W
D3H44 light chain F98W [45] = test: LCCA (SPR), competitor L2 F98A
D3H44 light chain F98L [46] = test: LCCA (SPR), competitor L2 F98W
[47] = target: tissue factor extracellular domains (human) (UniProt P13726); test: SPR, median of repeats
[48] = target: tissue factor extracellular domains (human) (UniProt P13726); test: SPR, TF immobilised, purified Fab as analyte, 1:1 model

D3H44 heavy chain (Fab format) D146G_Q179R
H1 L1 of H1 L1:H1 L2 (screen) [1]: 86.7
H1 L1 of H1 L1:H1 L2 (verification) [1]: 97
H1 L2 of H1 L1:H1 L2 (screen) [2]: 1.4
H1 L2 of H1 L1:H1 L2 (verification) [2]: 0.9
H1 Readout (H1-L2) [3]: 1
H1 Readout (H1-L1) [4]: 93

D3H44 heavy chain (Fab format) D146G_S186R
H1 Readout (H1-L2) [5]: 1
H1 Readout (H1-L1) [4]: 84

D3H44 heavy chain (Fab format) F174V_P175S_S188G
H1 L1 of H1 L1:H1 L2 (screen) (D3H44 light chain S176L [6]): 53.4
H1 L2 of H1 L1:H1 L2 (screen) [7]: 9.68
H2 L2 of H2 L2:H2 L1 (screen) (D3H44 light chain S176L [8]): 81.1
H2 L2 of H2 L2:H2 L1 (verification) (D3H44 light chain S176L [8]): 68.1
H2 L1 of H2 L2:H2 L1 (screen) (D3H44 light chain V133S [9]): 1.44
H2 L1 of H2 L2:H2 L1 (verification) (D3H44 light chain V133S [9]): 2.9
H2 Readout (H2-L2) (D3H44 light chain S176L [10]): 98
H2 Readout (H2-L1) (D3H44 light chain V133S [11]): 1

D3H44 heavy chain (Fab format) K145E_D146G_Q179D_S188L
H2 Readout (H2-L2) [12]: 74
H2 Readout (H2-L1) [13]: 2

D3H44 heavy chain (Fab format) K145T_Q179D_S188F
H2 L1 of H2 L2:H2 L1 (screen) [14]: 1.5
H2 L1 of H2 L2:H2 L1 (verification) [14]: 11.5
H2 L2 of H2 L2:H2 L1 (screen) [15]: 87.3
H2 L2 of H2 L2:H2 L1 (verification) [15]: 83.2
H2 Readout (H2-L2) [16]: 87
H2 Readout (H2-L1) [17]: 14

D3H44 heavy chain (Fab format) K145T_Q179D_S188L
H2 L1 of H2 L2:H2 L1 (screen) [1]: 7.2
H2 L1 of H2 L2:H2 L1 (verification) [1]: 20
H2 L2 of H2 L2:H2 L1 (screen) [2]: 71
H2 L2 of H2 L2:H2 L1 (verification) [2]: 74.3
H2 Readout (H2-L2) [18]: 83
H2 Readout (H2-L1) [13]: 24

D3H44 heavy chain (Fab format) L143A_D144G_Q179R
H1 L1 of H1 L1:H1 L2 (screen) [14]: 97.4
H1 L1 of H1 L1:H1 L2 (verification) [14]: 93.6
H1 L2 of H1 L1:H1 L2 (screen) [15]: 0.4
H1 L2 of H1 L1:H1 L2 (verification) [15]: 0.6
H1 Readout (H1-L2) [19]: 1
H1 Readout (H1-L1) [20]: 104

D3H44 heavy chain (Fab format) Q39M
H1 L2 of H1 L1:H1 L2 (screen) (D3H44 light chain Q38E [21]): 33.3
H1 L1 of H1 L1:H1 L2 (screen) (D3H44 light chain Q38M [22]): 69.6
H1 L2 of H1 L1:H1 L2 (verification) (D3H44 light chain Q38E [23]): 31.3
H1 L1 of H1 L1:H1 L2 (verification) (D3H44 light chain Q38M [24]): 60.2
H1 L2 of H1 L1:H1 L2 (verification) (D3H44 light chain Q38E [25]): 40.6
H1 L1 of H1 L1:H1 L2 (verification) (D3H44 light chain Q38M [26]): 58.8

D3H44 heavy chain (Fab format) Q39R
H1 L2 of H1 L1:H1 L2 (screen) (D3H44 light chain Q38R [27]): 10.8
H1 L2 of H1 L1:H1 L2 (screen) (D3H44 light chain F98A [28]): 4.3
H1 L2 of H1 L1:H1 L2 (verification) (D3H44 light chain F98A [28]): 4
H1 L2 of H1 L1:H1 L2 (screen) (D3H44 light chain Q38R [29]): 22.7
H1 L2 of H1 L1:H1 L2 (verification) (D3H44 light chain Q38R [29]): 8.4
H2 L1 of H2 L2:H2 L1 (verification) (D3H44 light chain Q38R [30]): 11.1
H2 Readout (H2-L1) (D3H44 light chain Q38R [31]): 1

D3H44 heavy chain (Fab format) S188I
H1 L2 of H1 L1:H1 L2 (screen) [32]: 41.9
H1 L1 of H1 L1:H1 L2 (screen) [33]: 61.9

D3H44 heavy chain (Fab format) S188L_V190Y
H1 L2 of H1 L1:H1 L2 (screen) (D3H44 light chain S176L [8]): 7.72
H1 L2 of H1 L1:H1 L2 (verification) (D3H44 light chain S176L [8]): 12.4
H1 L1 of H1 L1:H1 L2 (screen) (D3H44 light chain V133S [9]): 90
H1 L1 of H1 L1:H1 L2 (verification) (D3H44 light chain V133S [9]): 81.2
H1 Readout (H1-L2) (D3H44 light chain S176L [34]): 24
H1 Readout (H1-L1) (D3H44 light chain V133S [35]): 83

D3H44 heavy chain (Fab format) V37E_F100D
H1 L1 of H1 L1:H1 L2 (screen) [36]: 98.7
H1 L1 of H1 L1:H1 L2 (verification) [36]: 119
H1 L1 of H1 L1:H1 L2 (screen) [37]: 67.8
H1 L1 of H1 L1:H1 L2 (verification) [37]: 76.3
H1 L2 of H1 L1:H1 L2 (screen) (D3H44 light chain F98Y): 24.4
H1 L2 of H1 L1:H1 L2 (verification) (D3H44 light chain F98Y): 18.1
H1 L2 of H1 L1:H1 L2 (screen) [38]: 4.2
H1 L2 of H1 L1:H1 L2 (verification) [38]: 4.5
H1 Readout (H1-L2) [39]: 10
H1 Readout (H1-L1) [40]: 99

D3H44 heavy chain (Fab format), wild type
H1 L2 of H1 L1:H1 L2 (screen) (D3H44 light chain F116A): 26.3
H1 L2 of H1 L1:H1 L2 (screen) (D3H44 light chain F98A [41]): 7.5
H1 L2 of H1 L1:H1 L2 (screen) (D3H44 light chain F98L [42]): 13.3
H2 L2 of H2 L2:H2 L1 (screen) [32]: 99.4
H2 L2 of H2 L2:H2 L1 (screen) (D3H44 light chain F98W [43]): 74.2
H2 L2 of H2 L2:H2 L1 (verification) (D3H44 light chain F98W [43]): 50.8
H1 L2 of H1 L1:H1 L2 (screen) (D3H44 light chain F98A [44]): 28.7
H1 L2 of H1 L1:H1 L2 (verification) (D3H44 light chain F98A [44]): 28.7
H1 L1 of H1 L1:H1 L2 (screen) (D3H44 light chain F98W [45]): 67.1
H1 L1 of H1 L1:H1 L2 (verification) (D3H44 light chain F98W [45]): 67.1
H2 L1 of H2 L2:H2 L1 (screen) (D3H44 light chain F98L [46]): 27.8
H2 L1 of H2 L2:H2 L1 (verification) (D3H44 light chain F98L [46]): 23.6

Wild-type anti-TF D3H44 Fab
Kd [47]: 0.06 nM
Kd [48]: 0.052 nM

— patent publication US20190085055A1
